Tests used:
[1] = target: human mitochondrial heat shock protein 60 (hsp60), wild type (human) (UniProt P10809); test: dynamic light scattering; 1 uM hsp60 (wild type or mutant), 2 uM hsp10, 100 mM ATP, 100 mM MgCl2; 5 min at 37 C; unbound nucleotide removed on desalting spin columns
[2] = target: human mitochondrial heat shock protein 60 (hsp60), wild type (human) (UniProt P10809); test: negative-stain electron microscopy; hsp60 and hsp10 (1:1 molar ratio) with 2 mM Mg-ADP, about 5 min at room temperature, no substrate
[3] = target: human mitochondrial heat shock protein 60 (hsp60), wild type (human) (UniProt P10809); test: negative-stain electron microscopy; wild type hsp60/hsp10 with 2 mM ATP, about 5 min at room temperature, no substrate; bullet reconstruction, C7 symmetry, about 17 A
[4] = target: human mitochondrial heat shock protein 60 (hsp60), wild type (human) (UniProt P10809); test: negative-stain electron microscopy; purified hsp60/hsp10 at 0.2 mg/ml on carbon grids, no nucleotide and no substrate (APO conformation); class averages and single-particle reconstruction
[5] = target: human mitochondrial heat shock protein 60 (hsp60), wild type (human) (UniProt P10809); test: dynamic light scattering; Malvern Zetasizer Nano ZS, hsp60 (wild type or mutant) without nucleotide (APO); percent volume
[6] = target: human mitochondrial heat shock protein 60 (hsp60), wild type (human) (UniProt P10809); test: negative-stain electron microscopy; hsp60 and hsp10 (2:1 molar ratio) with 100 mM ATP, about 5 min at room temperature, no substrate; football reconstruction, D7 symmetry, about 20 A
[7] = target: human mitochondrial heat shock protein 60 (hsp60), wild type (human) (UniProt P10809); test: dynamic light scattering; 1 uM hsp60 (wild type or mutant), 2 uM hsp10, 2 mM ADP; 5 min at 37 C; unbound nucleotide removed on desalting spin columns

Sequence of human mitochondrial heat shock protein 60 (hsp60), wild type (P10809 27-573): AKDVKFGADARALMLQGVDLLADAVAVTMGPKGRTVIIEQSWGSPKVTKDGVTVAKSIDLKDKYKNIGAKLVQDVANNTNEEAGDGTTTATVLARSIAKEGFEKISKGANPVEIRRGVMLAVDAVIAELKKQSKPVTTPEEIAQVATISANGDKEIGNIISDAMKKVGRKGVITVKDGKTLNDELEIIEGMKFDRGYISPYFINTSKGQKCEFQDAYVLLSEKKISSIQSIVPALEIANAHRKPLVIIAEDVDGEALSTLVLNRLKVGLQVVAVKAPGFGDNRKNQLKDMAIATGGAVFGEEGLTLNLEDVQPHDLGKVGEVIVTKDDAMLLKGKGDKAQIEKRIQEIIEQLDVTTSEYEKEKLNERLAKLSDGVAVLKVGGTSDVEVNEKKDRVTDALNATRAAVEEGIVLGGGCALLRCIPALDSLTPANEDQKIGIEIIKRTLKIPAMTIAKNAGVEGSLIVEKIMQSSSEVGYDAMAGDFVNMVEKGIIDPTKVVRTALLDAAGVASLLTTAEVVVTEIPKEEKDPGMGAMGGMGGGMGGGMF

stoichiometry N [1]: 14
stoichiometry N [2]: 7
stoichiometry N [3]: 14
stoichiometry N [4]: 14
stoichiometry N [5]: 14
stoichiometry N [6]: 14
stoichiometry N [7]: 14
Substance: human mitochondrial heat shock protein 60 (hsp60), wild type (from UniProt P10809 27-573) (natural protein)

Reference: paper PMC6707239
